In the experiment the target is env polypeptide of the LR1-C1 isolate (HIV-1 (variant of clade B primary isolate AC10)). Nature of the experiment: virion capture assay, titration of virions on 4E10-coated plates, p24 ELISA. On the technique in general: In an ELISA, binding on a coated surface is turned into a signal by an enzyme label.

For 4E10 antibody, the fold increase in affinity against the AC10 wild-type variant worked out at 4 fold.

(Values after patent US20140037667A1.)
